Measurements as given in paper PMC6391921.

What was measured:
Assay in all cases: BLI
[1] = target: H7ssF_I, H7 stabilized HA stem ferritin nanoparticle, design I (influenza A virus A/Shanghai/2/2013 (H7N9) | not stated) (UniProt Q9ZLI1)
[2] = target: H7ssF_D, H7 stabilized HA stem ferritin nanoparticle, design D (influenza A virus A/Shanghai/2/2013 (H7N9) | not stated) (UniProt Q9ZLI1)
[3] = target: H7ssF_J, H7 stabilized HA stem ferritin nanoparticle, design J (influenza A virus A/Shanghai/2/2013 (H7N9) | not stated) (UniProt Q9ZLI1)
[4] = target: H7ssF_F, H7 stabilized HA stem ferritin nanoparticle, design F (influenza A virus A/Shanghai/2/2013 (H7N9) | not stated) (UniProt Q9ZLI1)
[5] = target: H7ssF_E, H7 stabilized HA stem ferritin nanoparticle, design E (influenza A virus A/Shanghai/2/2013 (H7N9) | not stated) (UniProt Q9ZLI1)
[6] = target: H7ssF_B, H7 stabilized HA stem ferritin nanoparticle, design B (influenza A virus A/Shanghai/2/2013 (H7N9) | not stated) (UniProt Q9ZLI1)
[7] = target: H7ssF_C, H7 stabilized HA stem ferritin nanoparticle, design C (influenza A virus A/Shanghai/2/2013 (H7N9) | not stated) (UniProt Q9ZLI1)

## CT149 Fab
[1]
  Kd: 7.2 nM
  koff: 0.0029 s⁻¹
  kon: 410000 M⁻¹ s⁻¹
[2]
  Kd: 9 nM
  koff: 0.0033 s⁻¹
  kon: 370000 M⁻¹ s⁻¹
[3]
  Kd: 9.8 nM
  koff: 0.0034 s⁻¹
  kon: 350000 M⁻¹ s⁻¹
[4]
  Kd: 2.7 nM
  koff: 0.0018 s⁻¹
  kon: 670000 M⁻¹ s⁻¹
[5]
  Kd: 8.2 nM
  koff: 0.003 s⁻¹
  kon: 370000 M⁻¹ s⁻¹
[6]
  Kd: 7 nM
  koff: 0.003 s⁻¹
  kon: 420000 M⁻¹ s⁻¹
[7]
  Kd: 0.9 nM
  koff: 0.00053 s⁻¹
  kon: 600000 M⁻¹ s⁻¹
